Test results from PMC7246612, “The In Vitro Non-Tetramerizing ZapA^I83E Mutant Is Unable to Recruit ZapB to the Division Plane In Vivo in Escherichia coli” (International Journal of Molecular Sciences, 2020).
Residue numbers refer to the chain shown, from its start. Names and notes keep the numbering of the source.

Legend:
mKO–FtsZ (filamenting …) = target: T1, mKO–FtsZ (filamenting temperature-sensitive Z fused to mKO) (Escherichia coli, UniProt P0A9A6 1-383); assay: FRET or BRET; in vivo FRET in E. coli TB28 ∆zapA cells; mKO fusion (donor) and mCh fusion (acceptor) expressed from plasmids; energy transfer efficiency (EfA) by spectral unmixing; details: partners not purified
T1 construct: filamenting temperature-sensitive Z (FtsZ), Escherichia coli; also called pSAV072; pSAV–mKO–FtsZ; source: E. coli TB28 ∆zapA or WT strain, expressed from plasmid pSAV072, in living cells; not shown: mKO, N-terminal, kept
T1 sequence (looked up): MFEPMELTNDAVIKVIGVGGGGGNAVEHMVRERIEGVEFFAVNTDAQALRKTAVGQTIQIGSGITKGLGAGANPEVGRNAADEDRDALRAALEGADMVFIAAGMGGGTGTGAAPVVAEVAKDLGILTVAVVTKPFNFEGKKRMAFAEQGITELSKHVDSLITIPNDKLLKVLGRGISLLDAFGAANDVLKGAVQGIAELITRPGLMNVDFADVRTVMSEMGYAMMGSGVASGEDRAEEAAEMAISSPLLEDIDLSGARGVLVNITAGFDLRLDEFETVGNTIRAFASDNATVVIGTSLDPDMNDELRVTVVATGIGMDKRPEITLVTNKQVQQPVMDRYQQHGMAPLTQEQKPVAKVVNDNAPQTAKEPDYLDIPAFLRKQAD

[1] = target: T2, mKO–PBP1a (inner membrane protein PBP1a fused to mKO) (UniProt P02918 1-850); assay: as above; details: partners not purified
T2 construct: PBP1a, inner membrane protein; Negative control partner in the FRET assay; also called pBB004; pSAV–mKO–PBP1a; source: E. coli TB28 ∆zapA, expressed from plasmid pBB004, in living cells; not shown: mKO, N-terminal, kept
T2 sequence (looked up): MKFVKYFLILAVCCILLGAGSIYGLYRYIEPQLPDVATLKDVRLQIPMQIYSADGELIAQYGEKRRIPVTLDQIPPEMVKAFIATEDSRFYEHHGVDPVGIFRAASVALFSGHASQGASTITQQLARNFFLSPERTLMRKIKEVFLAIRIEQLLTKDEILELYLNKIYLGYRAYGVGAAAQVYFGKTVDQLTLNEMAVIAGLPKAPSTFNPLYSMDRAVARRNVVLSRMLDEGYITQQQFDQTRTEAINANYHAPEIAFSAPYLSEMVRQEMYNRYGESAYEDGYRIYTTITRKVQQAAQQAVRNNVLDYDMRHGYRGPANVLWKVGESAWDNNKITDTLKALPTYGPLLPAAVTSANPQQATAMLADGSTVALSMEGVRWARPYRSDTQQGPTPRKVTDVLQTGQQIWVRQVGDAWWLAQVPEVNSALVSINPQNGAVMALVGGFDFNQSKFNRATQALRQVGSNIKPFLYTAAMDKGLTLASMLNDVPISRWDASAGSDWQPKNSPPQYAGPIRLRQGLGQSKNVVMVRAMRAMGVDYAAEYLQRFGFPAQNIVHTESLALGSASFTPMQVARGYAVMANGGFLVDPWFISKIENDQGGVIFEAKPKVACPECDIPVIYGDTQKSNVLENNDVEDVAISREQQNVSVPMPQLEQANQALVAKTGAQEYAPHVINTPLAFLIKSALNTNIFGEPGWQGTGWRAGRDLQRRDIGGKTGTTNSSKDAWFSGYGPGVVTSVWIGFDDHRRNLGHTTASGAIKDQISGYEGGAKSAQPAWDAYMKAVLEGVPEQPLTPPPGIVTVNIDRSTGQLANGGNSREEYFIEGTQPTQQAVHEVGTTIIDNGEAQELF

B1: mCh–ZapA (wild-type Z-associated protein A fused to mCh) (natural protein, Escherichia coli, UniProt P0ADS2 1-109, looked up)
chain: MSAQPVDIQIFGRSLRVNCPPDQRDALNQAADDLNQRLQDLKERTRVTNTEQLVFIAALNISYELAQEKAKTRDYAASMEQRIRMLQQTIEQALLEQGRITEKTNQNFE
notes: Z-associated protein A (ZapA), Escherichia coli; also called mCh–ZapA^WT; ZapA^WT; source: E. coli TB28 ∆zapA or WT strain, expressed from plasmid pSAV077, in living cells; not shown: mCh, N-terminal, kept
EfA (energy transfer efficiency) (mKO–FtsZ (filamenting …)): 4% | EfA (energy transfer efficiency) [1]: < 1.7%

B2: mCh–ZapA^I83E (in vitro non-tetramerizing ZapA mutant fused to mCh) (natural protein, Escherichia coli, UniProt P0ADS2 1-109, looked up)
chain: B1 chain with I83E
notes: Z-associated protein A (ZapA), Escherichia coli, with I83E; made by exchanging zapA in pSAV077 with zapA^I83E from pRP071; also called pNM137; pTHV–mCh–ZapA^I83E; source: E. coli TB28 ∆zapA or WT strain, expressed from plasmid pNM137, in living cells; not shown: mCh, N-terminal, kept
EfA (energy transfer efficiency) [1]: < 1.7%

B3: mCh–PBP1b (PBP1b fused to mCh) (natural protein, UniProt P02919 1-844, looked up)
chain: MAGNDREPIGRKGKPTRPVKQKVSRRRYEDDDDYDDYDDYEDEEPMPRKGKGKGKGRKPRGKRGWLWLLLKLAIVFAVLIAIYGVYLDQKIRSRIDGKVWQLPAAVYGRMVNLEPDMTISKNEMVKLLEATQYRQVSKMTRPGEFTVQANSIEMIRRPFDFPDSKEGQVRARLTFDGDHLATIVNMENNRQFGFFRLDPRLITMISSPNGEQRLFVPRSGFPDLLVDTLLATEDRHFYEHDGISLYSIGRAVLANLTAGRTVQGASTLTQQLVKNLFLSSERSYWRKANEAYMALIMDARYSKDRILELYMNEVYLGQSGDNEIRGFPLASLYYFGRPVEELSLDQQALLVGMVKGASIYNPWRNPKLALERRNLVLRLLQQQQIIDQELYDMLSARPLGVQPRGGVISPQPAFMQLVRQELQAKLGDKVKDLSGVKIFTTFDSVAQDAAEKAAVEGIPALKKQRKLSDLETAIVVVDRFSGEVRAMVGGSEPQFAGYNRAMQARRSIGSLAKPATYLTALSQPKIYRLNTWIADAPIALRQPNGQVWSPQNDDRRYSESGRVMLVDALTRSMNVPTVNLGMALGLPAVTETWIKLGVPKDQLHPVPAMLLGALNLTPIEVAQAFQTIASGGNRAPLSALRSVIAEDGKVLYQSFPQAERAVPAQAAYLTLWTMQQVVQRGTGRQLGAKYPNLHLAGKTGTTNNNVDTWFAGIDGSTVTITWVGRDNNQPTKLYGASGAMSIYQRYLANQTPTPLNLVPPEDIADMGVDYDGNFVCSGGMRILPVWTSDPQSLCQQSEMQQQPSGNPFDQSSQPQQQPQQQPAQQEQKDSDGVAGWIKDMFGSN
notes: PBP1b; Negative control in the FRET assay; also called pBB008; pTHV–mCh–PBP1b; source: E. coli TB28 ∆zapA, expressed from plasmid pBB008, in living cells; not shown: mCh, N-terminal, kept
EfA (energy transfer efficiency) [1]: < 1.7%
